Measurements taken from paper PMC12090727, “Cell binding, uptake, and infection of influenza A virus using recombinant antibody-based receptors” (Journal of Virology, 2025).

Target: T1, HA-hFc probe: H1N1 A/California/04/2009 HA ectodomain fused to human IgG1 Fc (Influenza A virus A/California/04/2009 …, UniProt C3W5S1)
T1 construct: also called HA-probe; HA-human Fc probe; source: High Five insect cells (recombinant baculovirus), purified (HiTrap Protein G); not shown: Fc (human IgG1), C-terminal, kept
Assay: flow cytometry on cells
Settings: one partner purified

B1: fTfR-5J8 (Flag+) mutant D100bL (scFv, V domains shown)
VH: EVQLVESGPGLVKPSDILSLTCAVSGYSISSNYYWGWIRQPPGKGLEWIGSIYHSGSTYYKPSLESRLGISVDTSKNQFSLKLSFVSAADTAVYYCARHVRSGYPLTAYYFDKWGQGTLVTVSS
VL: SYVLTQPPSVSVAPGETARISCGGNNIGTKVLHWYQQTPGQAPVLVVYDDSDRPSGIPERFSGSNSGNTATLTISRVEVGDEADYYCQVWDISTDQAVFGGGTKLTVL
notes: also called D100bLeu
binding result: binds
